Results published in patent US9845340B2, “Peptides that specifically bind HGF receptor (cMet) and uses thereof” (Dyax Corp., priority 2003, dated 2017).

Tests used:
[1] = biological target: cMet-Fc fusion protein (Homo sapiens, UniProt P08581); test: Protein phage ELISA: peptide-displaying phage binding to soluble cMet-Fc versus TRAIL-Fc; settings: phage isolate; cMet-Fc vs. TRAIL-Fc
Procedure: Protein phage ELISAs using peptide-displaying phage isolates from the various selection campaigns were performed to determine specificity of the peptides for cMet versus an unrelated Fc-fusion protein (TRAIL-Fc). Briefly, 384-well plates were coated overnight at 4 C with 0.5 μg/mL of cMet-Fc fusion protein or TRAIL-Fc fusion protein (background). The plates were blocked for 2 hours 37C with 3% (w/v) BSA in PBS containing 0.05% (v/v) Tween-20 (PBST). The plates were washed with PBST and 100 μL of peptide-displaying phage were added to each well. The plates were incubated for 2 hours at room temperature and washed with PBST. cMet-binding peptide-displaying phage were detected using an HRP-conjugated anti-M13 antibody.

[2] = biological target: T1, 3T3 cells that over-express human cMet (Homo sapiens, UniProt P08581); test: Whole cell ELISA of peptide-displaying phage; assay type: cell-based; settings: phage isolate; 3T3 cells expressing human cMet vs. non-expressing 3T3 cells
T1 construct: expressed in transfected cells; host or cells: 3T3 cells
T1 sequence (P08581 25-1390): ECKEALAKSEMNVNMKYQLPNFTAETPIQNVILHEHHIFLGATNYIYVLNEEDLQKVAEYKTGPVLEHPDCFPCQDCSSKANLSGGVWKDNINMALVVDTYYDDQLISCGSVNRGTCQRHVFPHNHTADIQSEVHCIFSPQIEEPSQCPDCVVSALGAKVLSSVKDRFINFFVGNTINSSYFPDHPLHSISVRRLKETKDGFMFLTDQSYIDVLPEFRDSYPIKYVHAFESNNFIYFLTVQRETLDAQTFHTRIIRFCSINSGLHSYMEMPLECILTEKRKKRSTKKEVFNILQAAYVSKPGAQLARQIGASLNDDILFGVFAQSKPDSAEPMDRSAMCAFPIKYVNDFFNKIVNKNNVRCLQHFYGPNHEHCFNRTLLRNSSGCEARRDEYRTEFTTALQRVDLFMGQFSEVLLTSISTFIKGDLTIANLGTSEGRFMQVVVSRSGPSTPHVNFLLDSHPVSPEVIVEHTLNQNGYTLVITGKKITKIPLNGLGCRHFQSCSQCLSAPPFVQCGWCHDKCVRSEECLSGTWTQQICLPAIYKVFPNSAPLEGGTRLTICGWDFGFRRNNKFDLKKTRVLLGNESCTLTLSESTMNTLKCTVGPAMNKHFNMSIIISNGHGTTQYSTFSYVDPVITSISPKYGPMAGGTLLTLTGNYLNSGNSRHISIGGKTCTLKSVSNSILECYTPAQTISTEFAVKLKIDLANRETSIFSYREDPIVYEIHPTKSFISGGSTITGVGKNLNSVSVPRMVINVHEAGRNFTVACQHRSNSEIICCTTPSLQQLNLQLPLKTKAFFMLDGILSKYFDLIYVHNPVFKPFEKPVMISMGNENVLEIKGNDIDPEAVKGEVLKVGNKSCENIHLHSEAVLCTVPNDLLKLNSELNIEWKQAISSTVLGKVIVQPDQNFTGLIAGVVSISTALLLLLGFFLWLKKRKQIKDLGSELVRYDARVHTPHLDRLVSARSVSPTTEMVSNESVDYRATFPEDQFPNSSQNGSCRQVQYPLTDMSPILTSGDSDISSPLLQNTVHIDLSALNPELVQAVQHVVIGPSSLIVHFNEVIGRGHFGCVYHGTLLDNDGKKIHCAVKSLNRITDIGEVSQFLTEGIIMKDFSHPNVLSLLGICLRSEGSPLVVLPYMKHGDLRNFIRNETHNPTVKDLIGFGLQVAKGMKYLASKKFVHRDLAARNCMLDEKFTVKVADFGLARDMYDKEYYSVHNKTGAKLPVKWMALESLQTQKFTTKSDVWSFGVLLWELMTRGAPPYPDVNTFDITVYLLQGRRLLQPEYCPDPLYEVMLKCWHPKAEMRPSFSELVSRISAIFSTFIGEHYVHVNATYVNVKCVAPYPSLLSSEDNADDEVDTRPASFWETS
Procedure: Whole cell ELISAs were performed using 3T3 cells that over-express human cMet. […] Briefly, 96-well plates were seeded with 10^5 cells per well. The plates were centrifuged for 5 minutes at 1600 rpm to pellet the cells. The resulting cell layer was fixed with 0.1% (v/v) glutaraldehyde for 12 minutes at 37 C. […] Peptide-displaying phage also were blocked in the above solution for 1 hour at 37 C. 100 μL of blocked phage was then added to each well and the plates were incubated for 1 hour at room temperature. The plates were washed with PBST. cMet-binding peptide-displaying phage were detected using an HRP-conjugated anti-M13 antibody.

cMet-Fc fusion protein, sequence (P08581 25-307 limits assumed): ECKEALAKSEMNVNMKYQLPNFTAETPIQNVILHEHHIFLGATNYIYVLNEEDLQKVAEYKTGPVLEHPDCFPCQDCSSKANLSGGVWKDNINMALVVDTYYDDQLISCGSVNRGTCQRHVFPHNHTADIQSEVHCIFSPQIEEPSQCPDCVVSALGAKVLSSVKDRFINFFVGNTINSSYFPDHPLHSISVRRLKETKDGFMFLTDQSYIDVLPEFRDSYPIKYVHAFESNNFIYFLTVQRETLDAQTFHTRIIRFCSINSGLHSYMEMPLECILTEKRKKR
cMet-Fc fusion protein, sequence (P08581 with tags, fused parts or gaps limits assumed): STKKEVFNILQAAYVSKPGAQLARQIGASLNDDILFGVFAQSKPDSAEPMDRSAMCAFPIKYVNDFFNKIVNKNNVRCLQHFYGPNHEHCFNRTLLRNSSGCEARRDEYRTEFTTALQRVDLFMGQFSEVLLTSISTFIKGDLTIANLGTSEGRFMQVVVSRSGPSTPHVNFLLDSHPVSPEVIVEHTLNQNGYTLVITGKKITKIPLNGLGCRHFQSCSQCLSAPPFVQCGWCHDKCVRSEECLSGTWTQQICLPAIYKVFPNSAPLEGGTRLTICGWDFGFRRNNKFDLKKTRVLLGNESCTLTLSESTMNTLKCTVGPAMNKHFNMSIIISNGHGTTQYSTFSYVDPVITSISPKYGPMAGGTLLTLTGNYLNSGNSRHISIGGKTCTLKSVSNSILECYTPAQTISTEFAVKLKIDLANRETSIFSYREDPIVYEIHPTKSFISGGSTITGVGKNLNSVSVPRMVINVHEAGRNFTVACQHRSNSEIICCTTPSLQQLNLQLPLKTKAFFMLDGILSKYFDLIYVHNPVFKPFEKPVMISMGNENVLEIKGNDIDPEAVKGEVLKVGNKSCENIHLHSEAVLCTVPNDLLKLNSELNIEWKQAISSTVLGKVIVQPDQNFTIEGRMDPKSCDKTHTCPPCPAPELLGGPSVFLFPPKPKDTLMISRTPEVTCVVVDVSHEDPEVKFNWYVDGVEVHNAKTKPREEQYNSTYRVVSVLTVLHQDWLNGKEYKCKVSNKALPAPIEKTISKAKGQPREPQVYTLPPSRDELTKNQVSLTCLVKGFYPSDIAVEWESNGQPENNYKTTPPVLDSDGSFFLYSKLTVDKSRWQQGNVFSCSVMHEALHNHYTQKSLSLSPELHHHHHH

Compound	Protein ELISA [1]	WC ELISA [2]
CC(=O)N[C@@H](C)C(=O)NCC(=O)N[C@@H](Cc1c[nH]c2ccccc12)C(=O)N[C@@H](Cc1ccccc1)C(=O)N[C@@H](CCC(N)=O)C(=O)N[C@H]1CSSC[C@@H](C(=O)N[C@@H](CCC(=O)O)C(=O)N[C@@H](CCCNC(=N)N)C(=O)N[C@@H](Cc2c[nH]cn2)C(=O)NCC(=O)N[C@H](C(=O)NCC(=O)NCC(=O)NCC(=O)N[C@@H](CCCCNC(=O)c2ccc3c(c2)C(=O)OC32c3ccc(O)cc3Oc3cc(O)ccc32)C(N)=O)[C@@H](C)O)NC(=O)[C@H](CCC(=O)O)NC(=O)[C@H](Cc2ccccc2)NC(=O)[C@H](CO)NC(=O)[C@@H]2CCCN2C(=O)[C@@H]2CCCN2C(=O)CNC(=O)[C@H](CCCCN)NC1=O [SEQ ID NO: 051]	5.4 fold over background	1.33 fold over background
AGDWHCQGPPAFMCWMIGT (Synthetically generated cMet-binding peptide sequence) [SEQ ID NO: 065]	4.7 fold over background	1.30 fold over background
AGETTCLGWPTFVCVDYGT (Synthetically generated cMet-binding peptide sequence) [SEQ ID NO: 063]	5.3 fold over background	1.27 fold over background
AQQWMFQIHQSMAWPYEWIDSY (Synthetically generated cMet-binding peptide sequence) [SEQ ID NO: 494]	3.9 fold over background	1.23 fold over background
GSQNNCEYGSRGSSFCLAMAP (Synthetically generated cMet-binding peptide sequence) [SEQ ID NO: 377]	6.4 fold over background	1.23 fold over background
GSSTICPGTACVDHAP (Synthetically generated cMet-binding peptide sequence) [SEQ ID NO: 008]	3.2 fold over background	1.27 fold over background
CC[C@H](C)[C@H](NC(=O)[C@@H]1CCCN1C(=O)[C@H](Cc1ccc(O)cc1)NC(=O)[C@H](CO)NC(=O)[C@H](CCSC)NC(=O)[C@H](C)NC(=O)[C@H](CC(C)C)NC(=O)[C@H](CCCCN)NC(=O)[C@H](Cc1ccc(O)cc1)NC(=O)[C@H](Cc1c[nH]cn1)NC(=O)[C@H](C)NC(=O)[C@H](CCC(=O)O)NC(=O)[C@@H]1CCCN1C(=O)[C@H](CCCNC(=N)N)NC(=O)[C@H](CCC(N)=O)NC(=O)[C@H](C)NC(C)=O)C(=O)N[C@H](C(=O)N1CCC[C@H]1C(=O)N[C@@H](CCCNC(=N)N)C(=O)N[C@H](C(=O)N[C@@H](CCCCN)C(=O)N[C@H](C(=O)NCC(=O)NCC(=O)NCC(=O)N[C@@H](CCCCNC(=O)c1ccc2c(c1)C(=O)OC21c2ccc(O)cc2Oc2cc(O)ccc21)C(N)=O)[C@@H](C)O)[C@@H](C)O)[C@@H](C)CC [SEQ ID NO: 452]	35.3 fold over background	1.37 fold over background
AQAEWVITSEEFYWKMADFGPP (Synthetically generated cMet-binding peptide sequence) [SEQ ID NO: 478]	3.4 fold over background	1.23 fold over background
AGAWNCEYPTFICEWQGA (Synthetically generated cMet-binding peptide sequence) [SEQ ID NO: 012]	4.5 fold over background	1.27 fold over background
CC[C@H](C)[C@H](NC(=O)[C@H](Cc1c[nH]c2ccccc12)NC(=O)[C@H](Cc1c[nH]cn1)NC(=O)CNC(=O)[C@H](C)NC(C)=O)C(=O)N[C@H]1CSSC[C@@H](C(=O)N[C@@H](CCC(N)=O)C(=O)N[C@@H](Cc2c[nH]c3ccccc23)C(=O)N[C@@H](Cc2c[nH]cn2)C(=O)NCC(=O)N[C@H](C(=O)NCC(=O)NCC(=O)NCC(=O)N[C@@H](CCCCNC(=O)c2ccc3c(c2)C(=O)OC32c3ccc(O)cc3Oc3cc(O)ccc32)C(N)=O)[C@@H](C)O)NC(=O)[C@H](CO)NC(=O)[C@H](Cc2ccccc2)NC(=O)[C@H]([C@@H](C)O)NC(=O)[C@@H]2CCCN2C(=O)[C@@H]2CCCN2C(=O)CNC(=O)[C@H](C(C)C)NC1=O [SEQ ID NO: 071]	13.5 fold over background	1.40 fold over background
ADAWMCEYFQWNCGDKGT (Synthetically generated cMet-binding peptide sequence) [SEQ ID NO: 046]	4.5 fold over background	1.33 fold over background
AGHYWCAGPPTFICMGPGT (Synthetically generated cMet-binding peptide sequence) [SEQ ID NO: 062]	10.2 fold over background	1.40 fold over background
AGQFKCAGPPSFACWMTGT (Synthetically generated cMet-binding peptide sequence) [SEQ ID NO: 050]	14.8 fold over background	1.43 fold over background

The next lines start with the values.

Protein ELISA [1]	WC ELISA [2]	Compound
7.0 fold over background	1.30 fold over background	GDYYQCQFSKDMYSERCWPYDP (Synthetically generated cMet-binding peptide sequence) [SEQ ID NO: 397]
3.5 fold over background	1.17 fold over background	AQHGYLSPLKQYQMSHVEFWTY (Synthetically generated cMet-binding peptide sequence) [SEQ ID NO: 476]
7.0 fold over background	1.30 fold over background	CSCC[C@H](NC(=O)[C@@H]1CCCN1C(=O)[C@H](CO)NC(=O)CNC(=O)[C@@H](NC(=O)[C@H](CCC(N)=O)NC(=O)[C@H](C)NC(C)=O)C(C)C)C(=O)N[C@@H](CC(C)C)C(=O)N1CCC[C@H]1C(=O)N[C@@H](CO)C(=O)N[C@@H](Cc1c[nH]c2ccccc12)C(=O)N[C@@H](Cc1ccccc1)C(=O)N[C@@H](CO)C(=O)N[C@@H](Cc1ccccc1)C(=O)N[C@@H](CCC(=O)O)C(=O)N[C@@H](C)C(=O)N[C@@H](CC(N)=O)C(=O)N[C@@H](Cc1c[nH]c2ccccc12)C(=O)N[C@@H](CO)C(=O)N[C@@H](CO)C(=O)NCC(=O)NCC(=O)NCC(=O)N[C@@H](CCCCNC(=O)c1ccc2c(c1)C(=O)OC21c2ccc(O)cc2Oc2cc(O)ccc21)C(N)=O [SEQ ID NO: 456]
13.4 fold over background	1.33 fold over background	AGNYFCAGSPSFSCYFMGT (Synthetically generated cMet-binding peptide sequence) [SEQ ID NO: 054]
8.0 fold over background	1.47 fold over background	CC(=O)N[C@@H](C)C(=O)NCC(=O)NCC(=O)N[C@@H](Cc1c[nH]c2ccccc12)C(=O)N[C@@H](CCC(=O)O)C(=O)N[C@H]1CSSC[C@@H](C(=O)NCC(=O)N[C@@H](Cc2ccc(O)cc2)C(=O)N[C@@H](Cc2ccc(O)cc2)C(=O)NCC(=O)N[C@H](C(=O)NCC(=O)NCC(=O)NCC(=O)N[C@@H](CCCCNC(=O)c2ccc3c(c2)C(=O)OC32c3ccc(O)cc3Oc3cc(O)ccc32)C(N)=O)[C@@H](C)O)NC(=O)[C@H](CCC(N)=O)NC(=O)[C@H](Cc2ccccc2)NC(=O)[C@H](Cc2c[nH]c3ccccc23)NC(=O)[C@@H]2CCCN2C(=O)[C@@H]2CCCN2C(=O)CNC(=O)[C@H]([C@@H](C)O)NC1=O [SEQ ID NO: 067]
4.3 fold over background	1.33 fold over background	GSSARCDELINDFHSCLVMAP (Synthetically generated cMet-binding peptide sequence) [SEQ ID NO: 375]
12.3 fold over background	1.23 fold over background	AGMTLCAGPPTFECYEVGT (Synthetically generated cMet-binding peptide sequence) [SEQ ID NO: 092]
3.8 fold over background	1.30 fold over background	AQGGRYPFYDTDWFKWEMYVL (Synthetically generated cMet-binding peptide sequence) [SEQ ID NO: 496]
7.8 fold over background	1.10 fold over background	AGETVCYWLNGWFCVDDGT (Synthetically generated cMet-binding peptide sequence) [SEQ ID NO: 073]
8.0 fold over background	1.30 fold over background	CC[C@H](C)[C@@H]1NC(=O)[C@@H](NC(=O)[C@H](Cc2c[nH]cn2)NC(=O)[C@@H](NC(=O)[C@H](Cc2c[nH]c3ccccc23)NC(=O)CNC(=O)[C@H](C)NC(C)=O)[C@@H](C)O)CSSC[C@@H](C(=O)N[C@H](C(=O)N2CCC[C@H]2C(=O)N[C@@H](CCSC)C(=O)NCC(=O)N[C@H](C(=O)NCC(=O)NCC(=O)NCC(=O)N[C@@H](CCCCNC(=O)c2ccc3c(c2)C(=O)OC32c3ccc(O)cc3Oc3cc(O)ccc32)C(N)=O)[C@@H](C)O)[C@@H](C)CC)NC(=O)[C@H](CCC(=O)O)NC(=O)[C@H](Cc2ccccc2)NC(=O)[C@H]([C@@H](C)O)NC(=O)[C@@H]2CCCN2C(=O)[C@@H]2CCCN2C(=O)CNC1=O [SEQ ID NO: 052]
3.2 fold over background	1.27 fold over background	AGPYSCHSESHDCKLMGT (Synthetically generated cMet-binding peptide sequence) [SEQ ID NO: 032]
